Data taken from publication PMC13071878, “Yeast Display Technology Enables Rapid Discovery of Low-Nanomolar Macrocyclic Peptide Inhibitors of Human Angiotensin-Converting Enzyme 2” (Journal of Medicinal Chemistry, 2026).
Values joined by “and” are separate entries in the source; they are usually repeats but may differ in a detail not shown here. Identical values can stand only once. Like-named read-outs stand apart in the source and are kept apart here.

Columns and labels:
hACE1 = target: T1, hACE1 (Homo sapiens, UniProt P12821); experiment: biochemical
T1 construct: purchased R&D Systems
T1 sequence (P12821 30-1306): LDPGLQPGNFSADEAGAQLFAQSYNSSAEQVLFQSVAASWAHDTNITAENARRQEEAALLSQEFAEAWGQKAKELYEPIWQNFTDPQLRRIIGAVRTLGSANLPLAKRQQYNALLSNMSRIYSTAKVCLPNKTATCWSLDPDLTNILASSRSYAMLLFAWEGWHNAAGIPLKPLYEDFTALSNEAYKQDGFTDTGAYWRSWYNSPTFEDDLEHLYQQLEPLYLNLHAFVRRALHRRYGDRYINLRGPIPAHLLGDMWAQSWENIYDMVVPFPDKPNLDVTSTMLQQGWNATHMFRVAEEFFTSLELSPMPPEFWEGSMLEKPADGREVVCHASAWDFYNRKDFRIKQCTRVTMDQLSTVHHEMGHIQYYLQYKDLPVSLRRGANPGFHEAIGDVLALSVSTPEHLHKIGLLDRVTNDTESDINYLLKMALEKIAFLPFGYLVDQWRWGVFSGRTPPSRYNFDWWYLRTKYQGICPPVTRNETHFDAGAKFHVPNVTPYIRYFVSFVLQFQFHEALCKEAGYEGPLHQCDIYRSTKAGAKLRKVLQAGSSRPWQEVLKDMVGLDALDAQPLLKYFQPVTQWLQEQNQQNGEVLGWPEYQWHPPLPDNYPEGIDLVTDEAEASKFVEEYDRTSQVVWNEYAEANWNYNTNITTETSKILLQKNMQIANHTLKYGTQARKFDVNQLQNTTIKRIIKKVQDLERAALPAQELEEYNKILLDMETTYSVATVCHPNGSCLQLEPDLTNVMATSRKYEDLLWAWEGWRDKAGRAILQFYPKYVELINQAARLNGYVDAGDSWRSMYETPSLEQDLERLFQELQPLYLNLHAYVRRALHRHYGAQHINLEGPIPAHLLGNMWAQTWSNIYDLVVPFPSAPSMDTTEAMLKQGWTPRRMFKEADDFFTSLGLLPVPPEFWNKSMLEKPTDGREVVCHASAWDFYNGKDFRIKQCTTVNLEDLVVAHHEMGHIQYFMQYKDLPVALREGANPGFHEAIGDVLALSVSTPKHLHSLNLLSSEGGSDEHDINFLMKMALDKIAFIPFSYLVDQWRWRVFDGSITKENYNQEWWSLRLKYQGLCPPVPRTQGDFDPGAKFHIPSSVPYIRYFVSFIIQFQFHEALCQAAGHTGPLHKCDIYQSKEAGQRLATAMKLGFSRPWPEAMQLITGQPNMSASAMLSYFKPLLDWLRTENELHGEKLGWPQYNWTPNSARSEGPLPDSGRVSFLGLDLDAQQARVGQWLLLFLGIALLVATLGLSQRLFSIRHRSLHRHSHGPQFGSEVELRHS
Method: The activity assay was performed by incubating 0.25 nM of hACE2 with 50 μM fluorogenic substrate Mca-Ala-Pro-Lys­(Dnp)–OH (MedChemExpress, Monmouth Junction, NJ, USA) and 3-fold MP dilutions (ranging from 0.03 nM to 100 μM). […] All reagents were diluted in 10 mM Tris–HCl, pH 7.4, 300 mM NaCl, 100 μM ZnCl2, 0.1% w/v BSA, and 0.1% v/v DMSO assay buffer. The measurements were performed on a Berthold TriStar LB 941 microplate reader (Berthold Technologies, Bad Wildbad, Germany) using flat-bottom 96-well half area Corning Costar plates (Corning, New York, USA). The enzymatic reactions were performed at 25 °C for 90 min, under shaking with a maximum excitation wavelength (λex) of 320 nm and maximum emission wavelength (λem) of 405 nm. The initial velocities were monitored as changes in fluorescence intensity. Half-maximum inhibitory concentration (IC50) values were determined using GraphPad Prism v8.2.1 software (GraphPad software Inc., San Diego, CA, USA). […] Reactions were initiated by adding hACE2 (final concentration 0.25 nM) to the fluorogenic substrate in assay buffer at 25 °C. Fluorescence was recorded as described earlier (λex = 320 nm, λem = 405 nm) using a Berthold TriStar LB 941 microplate reader (Berthold Technologies, Bad Wildbad, Germany). Initial velocities (V 0) were plotted against substrate concentrations [S] and analyzed via nonlinear regression using a one-site specific binding model using GraphPad Prism v8.2.1 software (GraphPad software Inc., San Diego, CA, USA). […] All reagents were diluted in 10 mM Tris-HCl, pH 7.4, 300 mM NaCl, 100 μM ZnCl2, 0.1% w/v BSA, and 0.1% v/v DMSO buffer. Measurements and data analysis were performed as mentioned above.

[1] = Plasma stability of synthetic peptides (LC-MS); conditions: human, plasma, plasma half-life t1/2, human plasma, 37 °C, 10 μM, LC-MS, n = 2
Method: The mixtures were incubated at 37 °C in a water bath (VWR, Pennsylvania, PA, USA). At designated time points (0, 0.25, 0.5, 1, 2, 4, 8, 24, and 48 h), 100 μL aliquots were withdrawn and quenched with 100 μL of 100% v/v ACN. Following centrifugation (10 min at 15000 g, 4 °C), 100 μL of the supernatant was collected and diluted with 50 μL of solvent A (99.9% v/v H2O and 0.1% v/v FA). Samples were characterized by LC–MS using an Agilent 1260 Infinity II LC system coupled to an InfinityLab LC/MSD mass spectrometer (Agilent Technologies, Santa Clara, CA, USA). The system operated with a standard ESI source in negative ionization mode. Separation was performed on a reversed-phase Symmetry C18 column (5 μm, 150 mm × 4.6 mm, Waters, Milford, MA, USA) using a linear gradient of 10–100% solvent B over 22 min at a flow rate of 0.6 mL/min (Solvent A: 99.9% v/v H2O and 0.1% v/v FA; Solvent B: 99.9% v/v ACN and 0.1% v/v FA). Data acquisition, processing, and analysis were performed using MestReNova v.12.0.1 (Mestrelab Research, Santiago de Compostela, Spain). All samples were analyzed in duplicate (n = 2). The percentage of remaining peptide was calculated by integrating the peak areas, with the area at 0 h defined as 100%. Half-lives (t 1/2) were determined via nonlinear regression analysis using GraphPad Prism (GraphPad software Inc., San Diego, CA, USA). Data are presented as mean values ± s.d.

hACE2 [2] = target: T2, hACE2 (Homo sapiens, UniProt Q9BYF1); experiment: Isothermal titration calorimetry of synthetic MPs with hACE2; format: binding; conditions: 25 °C
T2 sequence (Q9BYF1 19-615): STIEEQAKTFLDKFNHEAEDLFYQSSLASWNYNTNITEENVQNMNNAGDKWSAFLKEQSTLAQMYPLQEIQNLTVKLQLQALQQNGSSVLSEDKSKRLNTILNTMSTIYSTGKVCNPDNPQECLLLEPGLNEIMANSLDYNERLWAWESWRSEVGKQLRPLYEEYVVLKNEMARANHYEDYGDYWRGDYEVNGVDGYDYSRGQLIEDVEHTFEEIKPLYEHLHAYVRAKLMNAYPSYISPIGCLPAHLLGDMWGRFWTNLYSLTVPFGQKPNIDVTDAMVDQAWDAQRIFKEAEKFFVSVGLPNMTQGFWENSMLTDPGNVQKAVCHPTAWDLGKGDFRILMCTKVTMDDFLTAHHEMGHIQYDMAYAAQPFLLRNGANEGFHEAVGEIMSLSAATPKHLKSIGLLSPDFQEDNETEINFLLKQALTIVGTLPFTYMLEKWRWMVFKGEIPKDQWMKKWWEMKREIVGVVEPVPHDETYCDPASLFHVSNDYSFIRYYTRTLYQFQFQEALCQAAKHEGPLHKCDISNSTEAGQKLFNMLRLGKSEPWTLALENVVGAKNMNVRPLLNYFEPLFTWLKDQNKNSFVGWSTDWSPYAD
Method: Isothermal titration calorimetry (ITC) experiments were performed at 25 °C using a MicroCal iTC200 instrument ([…], Malvern Panalytical, Malvern, UK). The hACE2 protein (initial stock 11 mg/mL, 20 mM Tris pH 7.4, 200 mM NaCl) was diluted into the assay buffer (100 mM Tris pH 7.4, 200 mM NaCl) to a final concentration of 5 μM. […] Titrations consisted of an initial 0.4 μL injection (excluded from subsequent data analysis), followed by 18 injections of 2 μL each, with a stirring rate of 750 rpm to ensure rapid mixing. A 120 s interval was maintained between injections to ensure the baseline returned to equilibrium. Blank experiments involving the titration of the synthetic MPs into the assay buffer were performed to determine and subtract the heats of dilution. Data processing was conducted using the Origin software package version 7 (OriginLab Corporation, Northampton, MA, USA). The integrated heat signals were fitted to a single-site binding model to determine the association constant (K A), the dissociation constant ([…]), the enthalpy change (ΔH), and the binding stoichiometry (n). The Gibbs free energy (ΔG) and the entropy change (ΔS) were calculated using the standard thermodynamic relationship: ΔG=ΔH−TΔS=−RTln(KA)

hACE2 [3] = target: T2, hACE2; experiment: biochemical
Method: The activity assay was performed by incubating 0.25 nM of hACE2 with 50 μM fluorogenic substrate Mca-Ala-Pro-Lys­(Dnp)–OH (MedChemExpress, Monmouth Junction, NJ, USA) and 3-fold MP dilutions (ranging from 0.03 nM to 100 μM). […] All reagents were diluted in 10 mM Tris–HCl, pH 7.4, 300 mM NaCl, 100 μM ZnCl2, 0.1% w/v BSA, and 0.1% v/v DMSO assay buffer. The measurements were performed on a Berthold TriStar LB 941 microplate reader (Berthold Technologies, Bad Wildbad, Germany) using flat-bottom 96-well half area Corning Costar plates (Corning, New York, USA). The enzymatic reactions were performed at 25 °C for 90 min, under shaking with a maximum excitation wavelength (λex) of 320 nm and maximum emission wavelength (λem) of 405 nm. The initial velocities were monitored as changes in fluorescence intensity. Half-maximum inhibitory concentration (IC50) values were determined using GraphPad Prism v8.2.1 software (GraphPad software Inc., San Diego, CA, USA). […] Fluorescence was recorded as described earlier (λex = 320 nm, λem = 405 nm) using a Berthold TriStar LB 941 microplate reader (Berthold Technologies, Bad Wildbad, Germany). Initial velocities (V 0) were plotted against substrate concentrations [S] and analyzed via nonlinear regression using a one-site specific binding model using GraphPad Prism v8.2.1 software (GraphPad software Inc., San Diego, CA, USA). […]

hACE2 [4] = target: T2, hACE2; format: binding; conditions: yeast-displayed MP, serial dilutions of biotinylated hACE2
hACE2 [5] = target: T2, hACE2; parameters: method as in ref 2 (SI list; Harman et al. 2023); conditions: phage display bicyclic peptides, ref 2 (SI list; Harman et al. 2023), cited from earlier work; for Ki: where not reported, calculated by Cheng-Prusoff, Km 23 μM
hACE2 [6] = target: T2, hACE2; parameters: method as in ref 2 (SI list; Harman et al. 2023); conditions: phage display bicyclic peptides; ref 2 (SI list; Harman et al. 2023); cited from earlier work
hACE2 [7] = target: T2, hACE2; parameters: method as in ref 4 (SI list; Huang et al. 2003); conditions: phage display DX peptides, ref 4 (SI list; Huang et al. 2003), cited from earlier work; for Ki: where not reported, calculated by Cheng-Prusoff, Km 23 μM
hACE2 [8] = target: T2, hACE2; parameters: method as in ref 4 (SI list; Huang et al. 2003); conditions: phage display DX peptides; ref 4 (SI list; Huang et al. 2003); cited from earlier work
hACE2 [9] = target: T2, hACE2; parameters: method as in ref 3 (SI list; Bedding et al. 2024); conditions: mRNA display cyclic peptides, ref 3 (SI list; Bedding et al. 2024), cited from earlier work; for Ki: where not reported, calculated by Cheng-Prusoff, Km 23 μM
hACE2 [10] = target: T2, hACE2; parameters: method as in ref 3 (SI list; Bedding et al. 2024); conditions: mRNA display cyclic peptides; ref 3 (SI list; Bedding et al. 2024); cited from earlier work

CC(=O)NCC(=O)N[C@@H](CC(=O)O)C(=O)N[C@@H](Cc1ccc(O)cc1)C(=O)N[C@@H](CO)C(=O)N[C@@H](Cc1cnc[nH]1)C(=O)N[C@H]1CSSC[C@@H](C(=O)N[C@H](C(=O)N[C@@H](Cc2ccc(O)cc2)C(=O)N2CCC[C@H]2C(=O)N[C@@H](CC(=O)O)C(=O)N2CCC[C@H]2C(=O)N[C@@H](CCC(=O)O)C(=O)NCC(=O)NCC(=O)NCC(N)=O)[C@@H](C)O)NC(=O)[C@H](CCCCN)NC(=O)[C@H](Cc2c[nH]c3ccccc23)NC(=O)[C@H](Cc2c[nH]c3ccccc23)NC(=O)[C@@H]2CCCN2C(=O)[C@H](Cc2ccc(O)cc2)NC(=O)[C@H](Cc2ccc(O)cc2)NC(=O)[C@H](CCCNC(=N)N)NC(=O)[C@H](CC(C)C)NC(=O)[C@@H]2CCCN2C(=O)[C@H](CO)NC1=O [DX600]
IC50 (hACE1): > 100000 nM

CC[C@H](C)[C@@H]1NC(=O)[C@H](Cc2ccccc2)NC(=O)[C@H](Cc2ccccc2)NC(=O)[C@@H](NC(=O)[C@H](C)N)CSSC[C@@H](C(=O)N[C@@H](CO)C(=O)NCC(N)=O)NC(=O)[C@H]([C@@H](C)CC)NC(=O)[C@H](Cc2c[nH]c3ccccc23)NC(=O)[C@H](CCCNC(=N)N)NC(=O)[C@H](CC(N)=O)NC(=O)[C@H](Cc2ccccc2)NC(=O)CNC1=O [GR1.1]
half-life [1]: 5.4 h | IC50 (hACE1): > 100000 nM | Ki (hACE1): > 100000 nM

CC(C)C[C@@H]1NC(=O)[C@H](CC(N)=O)NC(=O)[C@H](Cc2ccc(O)cc2)NC(=O)CNC(=O)[C@H](CC(C)C)NC(=O)[C@@H]2CCCN2C(=O)[C@H](CCC(=O)O)NC(=O)[C@@H](NC(=O)[C@H](C)N)CSSC[C@@H](C(=O)N[C@@H](CO)C(=O)NCC(N)=O)NC(=O)[C@H](CC(C)C)NC(=O)[C@H](Cc2ccccc2)NC1=O [GR1.4]
ΔH (ITC) (hACE2 [2]): -8.01 ± 0.12 kcal/mol | -TΔS (ITC) (hACE2 [2]; calculated): -1.94 kcal/mol | half-life [1]: 6.5 h | IC50 (hACE1): > 100000 nM | Ki (hACE1): > 100000 nM

CC(C)C[C@@H]1NC(=O)[C@H](Cc2ccccc2)NC(=O)[C@@H](NC(=O)[C@H](C)N)CSSC[C@@H]2NC(=O)[C@H](CCCCN)NC(=O)[C@H](C(C)C)NC(=O)[C@H](CC(=O)O)NC(=O)[C@H](CCCNC(=N)N)NC(=O)[C@H](Cc3c[nH]cn3)NC(=O)[C@H](CSSC[C@@H](C(=O)N[C@@H](CO)C(=O)NCC(N)=O)NC(=O)[C@H](Cc3c[nH]c4ccccc34)NC(=O)[C@H](CC(C)C)NC(=O)[C@H](Cc3c[nH]c4ccccc34)NC2=O)NC(=O)[C@H](CCCNC(=N)N)NC1=O [GR3.1.3]
Ki (hACE2 [3]): 1040 nM

ACEPAGYNLFLCSG [GR1.6]
binding to hACE2 in yeast surface titration (in words) (hACE2 [4]): completely abolished

ACEPLAYNLFLCSG [GR1.7]
binding to hACE2 in yeast surface titration (in words) (hACE2 [4]): completely abolished

ACEPLGANLFLCSG [GR1.8]
binding to hACE2 in yeast surface titration (in words) (hACE2 [4]): completely abolished

ACEPLGFNRWICSG [GR1.3, yeast-encoded “one-ring” macrocyclic peptide, GR1 family]
binding to hACE2 in yeast surface titration (in words) (hACE2 [4]): comparable binding affinities

ACEPLGYALFLCSG [GR1.9]
binding to hACE2 in yeast surface titration (in words) (hACE2 [4]): significantly attenuated

ACGREELPCRIKLCA [BCY15298]
IC50 (hACE2 [5]): > 40000 nM

ACGRQFCHTLMPRHLCA [BCY15292]
IC50 (hACE2 [5]): 2.6 nM | Ki (hACE2 [5]): 1.2 nM | Kd (hACE2 [6]): 1.2 nM

ACHKFPCRDPQQYLFCA [BCY15296]
IC50 (hACE2 [5]): 47 nM | Ki (hACE2 [5]): 21 nM | Kd (hACE2 [6]): 29 nM

ACHRDFPRCTWETQWCA [BCY15297]
IC50 (hACE2 [5]): 12000 nM | Ki (hACE2 [5]): 5200 nM | Kd (hACE2 [6]): 11000 nM

ACLRSYNLCPRINCA [BCY15294]
IC50 (hACE2 [5]): 2400 nM | Ki (hACE2 [5]): 1100 nM | Kd (hACE2 [6]): 850 nM

ACTRPWCHSLLPRATCA [BCY15293]
IC50 (hACE2 [5]): 4.9 nM | Ki (hACE2 [5]): 2.2 nM | Kd (hACE2 [6]): 1.6 nM

ACVRSHCSSLLPRIHCA [BCY15291]
IC50 (hACE2 [5]): 2 nM | Ki (hACE2 [5]): 0.9 nM | Kd (hACE2 [6]): 0.4 nM and 0.44 nM

AGQKECKFGYPHCLPWGT [DX530]
IC50 (hACE2 [7]): 30000 nM

AGSDWCGTWNNPCFHQGT [DX531]
IC50 (hACE2 [7]): 500 nM | Ki (hACE2 [7]): 540 nM

AGWEVCHWAPMMCKHGGT [DX529]
IC50 (hACE2 [7]): 400 nM | Ki (hACE2 [7]): 380 nM

GDFSPCKALRHSPWWVCPSGDP [DX602]
IC50 (hACE2 [7]): 128 nM | Ki (hACE2 [7]): 121 nM | Kd (hACE2 [8]): 74.4 nM

GDGFTCSPIRMFPWFRCDLGDP [DX601]
IC50 (hACE2 [7]): 56.8 nM | Ki (hACE2 [7]): 30.9 nM | Kd (hACE2 [8]): 56.3 nM

GDLHACRPVRGDPWWACTLGDP [DX513]
IC50 (hACE2 [7]): 90 nM | Ki (hACE2 [7]): 126 nM | Kd (hACE2 [8]): 170 nM

GDRLHCKPQRQSPWMKCQHLDP [DX512]
IC50 (hACE2 [7]): 60 nM | Ki (hACE2 [7]): 139 nM | Kd (hACE2 [8]): 96 nM

GDRYLCLPQRDKPWKFCNWFDP [DX599]
IC50 (hACE2 [7]): 114 nM | Ki (hACE2 [7]): 46.5 nM | Kd (hACE2 [8]): 48.6 nM

GSRGFCRDSSCSFPAP [DX525]
IC50 (hACE2 [7]): 1000 nM | Ki (hACE2 [7]): 1700 nM

GSRIGCRDSRCNWWAP [DX524]
IC50 (hACE2 [7]): 600 nM | Ki (hACE2 [7]): 540 nM

Y*AVLLHKGKFVFTYGC [peptide12]
IC50 (hACE2 [9]): 39500 nM | Ki (hACE2 [9]): 7390 nM | Kd (hACE2 [10]): 610 nM

Y*FQRSVRLPYLRC [peptide2]
Kd (hACE2 [10]): 0.04 nM

Y*VFRSLRTPFIVC [peptide1]
Kd (hACE2 [10]): 0.4 nM

Y*VKRNVYEGYKPC [peptide15]
Kd (hACE2 [10]): 7.3 nM

Y*VLSSPRGALRALRC [peptide3]
Kd (hACE2 [10]): 290 nM

Y*WTLFVFRDGVLPVWSC [peptide9]
IC50 (hACE2 [9]): 2050 nM | Ki (hACE2 [9]): 383 nM | Kd (hACE2 [10]): 50.3 nM

y*ARPLRHRPWYVSWC [peptide6]
Kd (hACE2 [10]): 3.3 nM

y*DAYTRRTHRNPRLCQC [peptide7]
Kd (hACE2 [10]): 32 nM

y*FNRSGKLLFLYC [peptide4]
Kd (hACE2 [10]): 240 nM

y*IRQFTSRVPLHC [peptide21]
Kd (hACE2 [10]): 3.6 nM

y*LSVNRVFAYRIIYKC [peptide23]
Kd (hACE2 [10]): 9.1 nM

y*RLHRSPWAHFGFAC [peptide20]
IC50 (hACE2 [9]): 1980 nM | Ki (hACE2 [9]): 370 nM | Kd (hACE2 [10]): 228 nM

y*SYQYRGRFHRQC [peptide19]
Kd (hACE2 [10]): 78 nM

y*TYQYRDRFFRPC [peptide22]
Kd (hACE2 [10]): 14.8 nM

y*VHIIYWKNGLPRITC [peptide14]
IC50 (hACE2 [9]): 9720 nM | Ki (hACE2 [9]): 1820 nM | Kd (hACE2 [10]): 82.3 nM

y*VQRPIRNVRLIRC [peptide24]
Kd (hACE2 [10]): 430 nM

y*VVLRPLRDLGRVFC [peptide5]
Kd (hACE2 [10]): 9 nM
